Experimental findings from patent US20180118806A1 (MIT, published 2018) are described below.

“And” between values parts separate entries of the source, which are not always exact repeats. Equal values may be shown once.

Test [1] has as its target T1, Rantes (CCL5) (UniProt P13501 24-91).
T1 construct: In the yeast 2-hybrid screen the ligand construct is not described
T1 sequence (looked up): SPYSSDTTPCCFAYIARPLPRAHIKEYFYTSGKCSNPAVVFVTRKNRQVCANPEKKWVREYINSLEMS
Description: MST, run 3, technical repeat; run 3, second technical repeat. The method, then: (§1) Each run of assay systematically measures 16 capillaries with identical concentration of a non-full length CCR5^QTY variant, but different concentrations of Rantes (Prospecbio http://www.prospecbio.com/Rantes/) with 2 duplicate measurements (Technical repeat 1 and 2).
(§2) Briefly, serial dilution of the target molecule Rantes was prepared in buffer to match the final buffer conditions in the reaction mix. The highest concentration of target was 6.0 μM, and the lowest 184.0 pM. About 5 μl of each dilution step were mixed with 5 μl of the fluorescent molecule—a partial water-soluble […] variant of CCR5 (e.g., CCR5-SZ218a). The final reaction mixture, which was filled in capillaries, contained a respective amount of target molecule (max. conc. 3.0 μM, min conc. 92.0 pM) and constant 5 nM fluorescent molecule.
(§3) The samples were analyzed on a Monolith NT.115 Pico at 25° C., with 12% LED power and 80% Laser power. No sticking of the fluorescent interaction partner to the capillary walls was indicated in the capillary scan.

In test [2] the target is T1, Rantes (CCL5). Put plainly: MST (MicroScale Thermophoresis), labelled CCR5QTY variant constant, Rantes titrated (axis 0.01-10000 nM); left panel, fits of Tech. 1 and Tech. 2. On the procedure:
as §1, §2, §3
For orientation: MST reads how a fluorescent partner responds to local heating, with and without ligand.

For test [3], the target named is T1, Rantes (CCL5). Put plainly: MST, run 2, technical repeat; run 2, first technical repeat. On the procedure: as §1, §2, §3
For test [4], the target named is T1, Rantes (CCL5). Put plainly: MST, run 1, technical repeat; dye-labelled variant at 5 nM, Rantes titrated (FIG. 7); run 1, second technical repeat. On the procedure: as §1, §2, §3
The target in test [5] is T1, Rantes (CCL5). Put plainly: MST, run 1, technical repeat; dye-labelled variant at 5 nM, Rantes titrated (FIG. 7); run 1, first technical repeat. The method, then:
as §1, §2, §3

In test [6] the target is T1, Rantes (CCL5). Put plainly: MST, run 2, technical repeat; run 2, second technical repeat. The method, then:
as §1, §2, §3

For test [7], the target named is T1, Rantes (CCL5). Put plainly: MST, run 3, technical repeat; run 3, first technical repeat. The method, then:
as §1, §2, §3

In test [8] the target is T1, Rantes (CCL5). Description: MST (MicroScale Thermophoresis), labelled CCR5QTY variant constant, Rantes titrated (axis 0.01-10000 nM); right panel, fits of Tech. 1 and Tech. 2. The method, then: as §1, §2, §3
Test [9] addresses T1, Rantes (CCL5). Put plainly: fluorescent MST (FIG. 5). The method, then: as §1, §2, §3
The target of test [10] is T1, Rantes (CCL5). Put plainly: MST (FIG. 5). On the procedure:
as §1, §2, §3

Test [11] deals with T1, Rantes (CCL5). Put plainly: MST, run 1, rounded value of the two technical repeats. The method, then: as §1, §2, §3
The target in test [12] is T1, Rantes (CCL5). Put plainly: MST, run 2, technical repeat; dye-labelled variant at 5 nM, Rantes titrated. On the procedure:
as §1, §2, §3

Test [13] has as its target T1, Rantes (CCL5). Description: MST, run 1, technical repeat; dye-labelled variant at 5 nM, Rantes titrated. On the procedure:
as §1, §2, §3

In test [14] the target is T1, Rantes (CCL5). Description: MST, run 3, LED power 15%, technical repeat. The method, then:
as §1, §2

Test [15] has as its target T1, Rantes (CCL5). Put plainly: MST, run 2, rounded value of the two technical repeats (FIG. 6). The method, then: as §1, §2, §3

B1: SZ190b = CCR5QTY(190b) (receptor)
chain: MDYQVSSPIYDINYYTSEPCQKINVKQIAARLQPPQYSQTFTFGFTGNMQTTQTQINCKRLKSMTDIYLQNQAISDQFFQQTTPYWAPYNTVQQQNTFQEFFGLNNCSSSNRLDQAMQVTETQGMTHCCTNPTIYAFVGEKFRNYLLVFFQKHIAKRFCKCCSIFQQEAPERASSVYTRSTGEQEISVGL
modifications: labelled with the dye DY647P1 in the MST assay (site not stated)
notes: Partial QTY variant of CCR5, 190 aa; Dye-labelled in MST; in the yeast 2-hybrid screen the fusion partner is not described; also called 5NA-17: Contig1; CCR5_SZ190b DY647P1
Turning to B1, the Kd with Rantes (CCL5) [1] is 54.9 nM; in the test with Rantes (CCL5) [2], around 46 nM; with Rantes (CCL5) [3], 27.4 nM; with Rantes (CCL5) [4], 51.8 nM; with Rantes (CCL5) [5], 46.5 nM; with Rantes (CCL5) [6], 56.5 nM. Also, the Kd was 32 nM with Rantes (CCL5) [7] and around 48 nM with Rantes (CCL5) [8].

B2: SZ352a = CCR5QTY(352a) (receptor)
chain: MDYQVSSPIYDINYYTSEPCQKINVKQIAARQQPPQYSQTFTYGFTGNMQTTQTQINCKRLKSMTDIYLQNQAISDQYYQQTTPYWAHYAAAQWDFGNTMCQQQTGQYFTGYYSGTYYTTQQTTDRYLAVVHAVFALKARTTTYGTTTSTTTWTTATYASQPGTTYTRSQKEGLHYTCSSHFPYSQYQFWKNFQTLKITIQGQVQPQQTMVTCYSGTQKTLLRCRNEKKRHRAVRQTFTTMTTYYQYWAPYNTTQQLNTFQEFFGLNNCSSSNRLDQAMQVTETQGMTHCCTNPTIYAYVGEKFRNYLLVFFQKHIAKRFCKCCSIFQQEAPERASSVYTRSTGEQEISVGL
modifications: labelled with a dye in the MST assay (dye and site not stated for this variant)
notes: Full-length (352 aa) QTY variant of CCR5, used as control in MST; also called CC15-22; full-length (352 aa) CCR5^QTY variant
As to B2, the Kd in the test with Rantes (CCL5) [2] was around 28 nM; with Rantes (CCL5) [9] it was around 30 nM; in the test with Rantes (CCL5) [10], 28 to 32 nM; with Rantes (CCL5) [8], around 32 nM.

B3: SZ218a = CCR5QTY(218a) (receptor)
chain: MDYQVSSPIYDINYYTSEPCQKINVKQIAARQQPPQYSQTYTFGFTGNMQTTQTQINCKRLKSMTDIYLQNQAISDQFFQQTTPFWAHYAAAQWDFGNTMCQQQTGQYFTGYYSGTYYTTQQLNTFQEFFGLNNCSSSNRLDQAMQTTETQGMTHCCINPTTYAYVGEKFRNYLLVFFQKHIAKRFCKCCSIFQQEAPERASSVYTRSTGEQEISVGL
modifications: labelled with the dye DY647P1 in the MST assay (site not stated)
notes: Dye-labelled in MST; fusion partner in yeast 2-hybrid not described; also called 5NA-43; CCR5_SZ218a DY647P1
Take B3: the Kd with Rantes (CCL5) [11] is around 75 nM; with Rantes (CCL5) [12], 80.2 nM and 83.2 nM; in the test with Rantes (CCL5) [13] it was 74.5 nM and 76.2 nM; with Rantes (CCL5) [14], 86.9 nM and 94.6 nM; with Rantes (CCL5) [15], around 80 nM.

What is called Kd is a measure of binding affinity in units of concentration. Higher therefore signals a looser complex.
